Data reported in the nanobody polyreactivity screen of Harvey et al. (2022).

Assay: yeast display, Sf9 membrane polyspecificity reagent, FACS + sequencing; frameworks hold sequencing errors
Summary of the method: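 Synthetic nanobody libraries on Saccharomyces cerevisiae BJ5465 were galactose-induced for 36–48 hours, stained 1 hour at 4 °C with 10% biotinylated, detergent-solubilized Sf9 membrane reagent and enriched on streptavidin microbeads. FACS then separated cells into low and high (top ~1%) gates by anti-HA (expression) and streptavidin (reagent binding) fluorescence. Genes were colony-PCR amplified, MiSeq 2 × 250 sequenced and CDR-length filtered. A clone's polyreactivity label is that of its gate of origin.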

Row | Sequence | polyreactivity (PSR sort gate)
1 | QVQLVDSGGGLVQAGGSLRLSCAASGRIFYSYAMGWYRQAPGKERELVAAISRSGGRTYYADSVKARFTISRDNAKNTVYFQMNSLKPEDTAVYYCAADGRVGEEEYWGQGTQVTVSS | high polyreactivity
2 | QVQLVDSGGGLVQAGGSLRLSCAASGRNFARYSMGWYRQAPGTERELVAAISWCGTSTYYADSVKGRYTISRDNAKNTVYLQMNSLKPEDTAVYYCAATYLYRDQPKWGGFAYTYGHWGQGTQVTVSS | high polyreactivity
3 | QVQLVDSGGGLVQAGGSLRLSCAASGRTFGVYAMGWYRQAPGKERELVAVINRSGGSTYYADSVKGRFTISRDNAKNTVYLQMNSLKPEDTAVYYCAARVTSHMYYWGQGTQVTVSS | high polyreactivity
4 | QVQLVDSGGGLVQAGGSLRLSCAASGRTFHKYAMGWYRQAPGKERELVAAISNGGRTYYADSVKGRFTISRDNAKNTLYLQMNSLKPEDTAVYYCNADRTWKGRQYDYWGQGTQVTVSS | high polyreactivity
5 | QVQLVDSGGGLVQAGGSLRLSCAASGRTIGFYAMGWYRQAPGKERELVAAINRSGDSTYYADSVKGRFTISRDNAKNTVYLQMNSLKPEDTAVYYCAASYGYRYEYWGQGTQVTVSS | high polyreactivity
6 | QVQLVDSGGGLVQAGGSLRLSCAASGRTSRRYAMGWYRQEPGKERELVAAIRGSGGSTYYADSVKGRFTISRDNAKNTVYLQMNSLKPEDTAVYYCAARSPRASGNSDYWGQGTQVTVSS | high polyreactivity
7 | QVQLVDSGGGLVQAGGSLRLSCAASGRTYFWNAMGWYRQAPGKERELVAAITWSGGSTYYADSVKGRFTISRDNAKNTVYLQMNSLKPEDTAVYYCAAVVSDYVWRYEYWGQGTQVTVSS | low polyreactivity
8 | QVQLVDSGGGLVQAGGSLRLSCAASGSIFAYYTIGWYRQAPRKERELVAAITSGGSTNYADSVKGRFTISRDNAKNTVYLQMNSLKPEDTAVYYCAVQGSRYSYRYGYRFRTMDYWGQGTQVTVSS | high polyreactivity
9 | QVQLVDSGGGLVQAGGSLRLSCAASGSIFFENDMGCYRQAPGKEREFVAAISLSSTSTYYADSVKGRFTISRDNAKNTVYLQMNSLKPEDTAVYYCAADAIFGWPTFDFWGQGTQVTVSS | low polyreactivity
10 | QVQLVDSGGGLVQAGGSLRLSCAASGSIFLLYVMGWYRQAPGKERELVAAISSGGSTNYADSVKGRFTISRDNAKITVYLQMNSLKPEDTAVYYCNAVAGPQGVKLYDYWGQGTQVTVSS | low polyreactivity
11 | QVQLVDSGGGLVQAGGSLRLSCAASGSIFPRYAMGWYRQAPGKERELVASISASGGSTYYADSVKGRFTISRDNAKITVYLQMYSLKPEDTAVYYCAKADRTGWLDGDYWGQGTQVTVSS | low polyreactivity
12 | QVQLVDSGGGLVQAGGSLRLSCAASGSIFRYKAMGWYRQAPGKERELVAAISWSGGRTYYADSVKGRFTISRDNAKNTVYLQMNSLKPEDTAVYYCAAAWYSSSRYQGIYRFAYWGQGTQVTVSS | high polyreactivity
13 | QVQLVDSGGGLVQAGGSLRLSCAASGSIFSVNAMGWYRQAPGKERQLVAAISVRGGRTYYADSVKGRFTISRDNAKNTVYLQMNSLIPEDTAVYYCATRISTVGRYDYWGQGTQVTVSS | high polyreactivity
14 | QVQLVDSGGGLVQAGGSLRLSCAASGSIFVGNAMGWYRQAPGKERELVAAISWRGGRTYYADSVKGRFTISRDNAKYTVYLQMNSLKPEDTAVYYCATVKARDYGYWGQGTQVTVSS | high polyreactivity
15 | QVQLVDSGGGLVQAGGSLRLSCAASGSIFYVNAMGWYRQAPGKERELVASITQSGGSTYYADSVKRRFTISRDNAKNTVDLQMNILKPEDTSVYYCNADIHVYPTRTRYYYWGQGTQVTVSS | low polyreactivity
16 | QVQLVDSGGGLVQAGGSLRLSCAASGSIIYDYPMGWYRQAPGKEREFVASIDWRGDSTYYADSVKGRFTNSRDNAKNTVYLQMNRLKPEDTAVYYCAADRSYQYYFYEDYGYDYWGQGTQVTVSS | low polyreactivity
17 | QVQLVDSGGGLVQAGGSLRLSCAASGSIYGYYAMGWYRQAPGKELVLVAVITSGATTNYADSLKGRFSISRDNAKNTGYLQMNSLKPEDTAVYYCAARPQVKRGRYGYWGQGTQVTVSS | low polyreactivity
18 | QVQLVDSGGGLVQAGGSLRLSCAASGSSFYISAMGCYRQAPGKERELVAAITNAGSTKYADSVKGRFTISRDNAKNTVYLQMNSLKPEDTAVYYCAAVTFSYDGYDYWGQGTQVTVSS | low polyreactivity
19 | QVQLVDSGGGLVQAGGSLRLSCAASGSTFPSNAMGWYRQAPGKERELVASIDRGGSTNNADSVKGRFTISRDNAKNTVYLQMNRLKPEDTAVYYCAAKRWPYWDISVYYWGYDYWGQGTQVTVSS | low polyreactivity
20 | QVQLVDSGGGLVQAGGSLRLSCAASGSTFRYNVMGWYRQAPGKEREMVATISYSGGSTNYADSVKGRFTISRDNAKNTVYLPMNSLKPEDTAVYYCAARYLYPFYRYWWYDYWGQGTQVTVSS | high polyreactivity
21 | QVQLVDSGGGLVQAGGSLRLSCAASGSTFRYYAMGWYRQAPGKEREFVAAITRSGGSTYYADSVKGRFTISRDNAKNTVYLQMNSLKPEETAVYYCNARPSASSRKKLERYYWGQGTQVTVSS | low polyreactivity
22 | QVQLVDSGGGLVQAGGSLRLSCAASGSTFTYYAMGWYRPAPGKERELVASITTSGGDTNYADSVKGRFTISRDNAKKTVYLQRNSQKPEDTPLYYCNTTTDQHYGYCAAADADRKYDYWGQGTQVTVSS | low polyreactivity
